The results in this text go back to patent publication US20230087805A1.

Test [1] has as its target C1ND (recombinant human CEACAM1 N-domain, residues 35-142, C-terminal Strep-Tag II, made in Expi293 cells) (human) (UniProt P13688). The experiment in a line: isothermal titration calorimetry, HopQ^AD titration with C1ND, 25 °C, 1:1 stoichiometry. (Isothermal titration calorimetry measures the heat released or taken up as one component is titrated into another.)
Test [2] shares this target. Put plainly: ELISA, C1ND coated, HopQ fragments titrated.

Usually Kd stands for the constant that tells how readily two partners part at equilibrium. As for “HopQ^AD (HopQ adhesin domain; soluble HopQ type I fragment of H. pylori strain G27, residues 37-463, C-terminal 6x His-tag)”, the Kd in test [1] stood at 296 nM.
With “HopQ^ADΔID (HopQ^AD in which amino acids 190-218 of the mature protein are replaced by two glycines)”, the fold reduction of CEACAM1 binding affinity against HopQ^AD in test [2] is 10 fold.
